Numbering of substitutions follows the chain as printed.

Consider eight molecules from patent US20130295102A1 (Novartis, published 2013).

Experiment [1] deals with T1, Human Factor P (human, UniProt P27918 29-469).
T1 construct: Bought protein (Complement Technology cat# A139) in SET and Biacore; Factor P of human serum in the functional assays; also called FP; human FP
Kind of experiment: SET, solution equilibrium titration. As for the experimental part:
(§1) In SET, a constant amount of antibody is incubated with different concentrations of antigen until equilibrium is reached. The concentration of free antibody in the equilibrated solution is determined by applying the solution on an antigen coated MSD™ plate (Meso Scale Discovery™) followed by incubation with an ECL-labeled secondary antibody and measurement of signal intensity. At low antigen concentrations, a strong signal is achieved (high concentration of free antibody which binds to the antigen on the plate) whereas for high antigen concentration, the antibody is completely antigen-captured, resulting in a low signal. If a sufficient number of antigen concentrations in a matching range are available, the titration curve allows for a reasonable determination of the affinity, using the appropriate fit model. […] The constant concentration of antibody applied in the assay should be in the range of, or below, the KD (Table 4).
(§2) Human Factor P (Complement Technology cat#: A139) and Cyno Factor P purified from cyno serum (protocol adapted from Nakano, et al., (1986) J Immunol Methods 90:77-83) were coated on standard binding MSD plates (Meso-Scale Discovery, 384-well: MSD cat#: L21XA, 96-well: MSD cat#: L15XA) at 0.2-0.3 μg/ml in 25 μl PBS and incubated overnight at 4° C. Factor P inhibitors were diluted to a fixed concentration (1 pM or 10 pM) in incubation buffer (PBS with 2% BSA (Sigma cat#: A4503) and 1% Tween20 and 1% Triton-X (Sigma cat#: 234729)), and added to a serial dilution of Factor P (human or cyno) in incubation buffer. Samples were allowed to reach equilibrium by incubation at RT overnight. Plates were washed 3× in wash buffer (PBS with 0.05% Tween20), and blocked with 100 μl incubation buffer at RT for 2 hrs. Plates were washed 3× in wash buffer. Sample containing Factor P inhibitors and Factor P titration were added to the plate (25 μl), and incubated at RT for 15 min. Plates were washed 3× in wash buffer. 25 μl detection antibody was added (Anti-Human (Goat) Sulfo-TAG, 1:1000 in incubation buffer, MSD cat#: R32AJ-1), and incubated at RT for 60 min. Plates were washed 3× in wash buffer, and 50 μl of 1×MSD Read buffer T was added (with surfactant, MSD cat#: R92TC-1). Plates were read on a MSD Spector Imager 6000.

For experiment [2], the target named is T2, Cynomolgus Factor P (cynomolgus).
T2 construct: Purified from cynomolgus serum for SET/Biacore; Factor P of cynomolgus serum in the functional assays; also called Cyno Factor P; cyno FP
Kind of experiment: SET, solution equilibrium titration. As for the experimental part:
as §1, §2

The target of experiment [3] is T1, Human Factor P. The experiment in a line: cell-based or functional assay.
The target in experiment [4] is T2, Cynomolgus Factor P. Kind of experiment: cell-based or functional assay.
For experiment [5], the target named is T1, Human Factor P. The experiment in a line: Biacore SPR, captured Factor P.
Experiment [6] addresses T2, Cynomolgus Factor P. Kind of experiment: Biacore SPR, captured Factor P. On the technique in general: In SPR one partner is held on a chip, and binding of the other changes the refractive index at the surface.

T1 sequence (P27918 29-469 limits assumed): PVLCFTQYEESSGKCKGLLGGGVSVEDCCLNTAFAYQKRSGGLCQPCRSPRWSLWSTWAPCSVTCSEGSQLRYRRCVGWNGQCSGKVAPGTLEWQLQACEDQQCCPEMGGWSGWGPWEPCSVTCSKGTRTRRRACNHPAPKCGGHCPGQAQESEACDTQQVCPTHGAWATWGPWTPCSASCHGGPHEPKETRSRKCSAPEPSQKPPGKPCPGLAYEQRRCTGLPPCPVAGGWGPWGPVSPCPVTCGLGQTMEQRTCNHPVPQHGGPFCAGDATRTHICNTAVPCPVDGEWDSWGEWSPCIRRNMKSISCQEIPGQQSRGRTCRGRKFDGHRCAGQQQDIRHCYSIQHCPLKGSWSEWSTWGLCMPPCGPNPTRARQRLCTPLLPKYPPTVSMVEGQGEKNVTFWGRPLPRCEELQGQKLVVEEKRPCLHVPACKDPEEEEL

B1: NVS965 (Fab, V domains shown)
VH: EVQLVQSGAEVKKPGSSVKVSCKASGGTFNSYAISWVRQAPGQGLEWMGRIIPIFGTANYAQKFQGRVTITADESTSTAYMELSSLRSEDTAVYYCARHGGYSFDSWGQGTLVTVSS
VL: SYVLTQPPSVSVAPGKTARISCSGDNLGSKYVDWYQQKPGQAPVLVIYSDNNRPSGIPERFSGSNSGNTATLTISGTQAMDEADYYCATYDSSPRTEVFGGGTKLTVLG
notes: Disulfide-bridged Fab; also called Fab NVS965
For the molecule B1, the Kd in experiment [1] was determined as 0.036 nM. In experiment [2], the equilibrium dissociation constant (Kd) came out at 0.014 nM. In experiment [3], the “Hemolytic assay IC50 (nM), 10% serum” value stood at 7.53 nM; the “Inhibition of C3a generation, 20% human serum” value (“Inhibition … 20% human serum” for short) amounted to 31.3 nM; the “MAC Deposition, 20% Serum EC50” value stood at 17.3 nM; the “Zymosan-C3b IC50 (nM), 10% serum” value came to 1.54 nM. Moreover, in experiment [4], the “Hemolytic assay IC50 (nM), 10% serum” value was determined as 13.2 nM; the “MAC Deposition, 20% Serum EC50” value came out at 22.2 nM; the “Zymosan-C3b IC50 (nM), 10% serum” value stood at 6.36 nM. For the same molecule, in experiment [5], the dissociation constant (Kd) turned out to be 0.016 nM, the off-rate constant (koff) was 4.1e-05 s⁻¹ and the kon was determined as 2.65e+06 M⁻¹ s⁻¹. In experiment [6], this molecule came in with a Kd of 0.028 nM, an off-rate constant (koff) of 6.22e-05 s⁻¹ and a kon of 2.24e+06 M⁻¹ s⁻¹.

B2: NVS965-S (Fab, V domains shown)
VH: B1 VH with N30S
VL: B1 VL
notes: NVS965 with heavy chain N30 replaced with serine
B2: the Kd in experiment [1] was 0.051 nM. The Kd in experiment [2] was found to be 0.036 nM. In experiment [3], the “Hemolytic assay IC50 (nM), 10% serum” value worked out at 7.89 nM; the “MAC Deposition, 20% Serum EC50” value is 7.32 nM; the “Zymosan-C3b IC50 (nM), 10% serum” value was determined as 1.39 nM. For the same molecule, in experiment [4], the “Hemolytic assay IC50 (nM), 10% serum” value worked out at 12 nM; the “MAC Deposition, 20% Serum EC50” value is 8.12 nM; the “Zymosan-C3b IC50 (nM), 10% serum” value came out at 1.57 nM. In addition, in experiment [5], the Kd amounted to 0.027 nM, the koff worked out at 9.9e-05 s⁻¹ and the kon was determined as 3.69e+06 M⁻¹ s⁻¹. In experiment [6], the Kd worked out at 0.06 nM, the koff stood at 0.000163 s⁻¹ and the kon is 2.71e+06 M⁻¹ s⁻¹.

B3: NVS965-T (Fab, V domains shown)
VH: B1 VH with N30T
VL: B1 VL
notes: NVS965 with heavy chain N30 replaced with threonine
Turning to B3, the Kd in experiment [1] is 0.052 nM. In experiment [2], the Kd was 0.044 nM. Also, in experiment [3], the “Hemolytic assay IC50 (nM), 10% serum” value is 7.15 nM; the “MAC Deposition, 20% Serum EC50” value is 13.8 nM; the “Zymosan-C3b IC50 (nM), 10% serum” value turned out to be 0.77 nM. Besides, in experiment [4], the “Hemolytic assay IC50 (nM), 10% serum” value came to 12.5 nM; the “MAC Deposition, 20% Serum EC50” value worked out at 11 nM; the “Zymosan-C3b IC50 (nM), 10% serum” value came out at 1.91 nM. In experiment [5], binding was put at a Kd of 0.0514 nM, the koff worked out at 0.000103 s⁻¹ and the kon came to 2.37e+06 M⁻¹ s⁻¹. In experiment [6], this molecule had a Kd of 0.0746 nM, a koff of 0.000151 s⁻¹ and a kon of 2.17e+06 M⁻¹ s⁻¹.

B4: NVS965-Q (Fab, V domains shown)
VH: B1 VH with N30Q
VL: B1 VL
notes: NVS965 with heavy chain N30 replaced with glutamine
Turning to B4, the Kd in experiment [1] stood at 0.301 nM; in experiment [2], 0.201 nM; in experiment [5], 0.138 nM; in experiment [6], 0.215 nM. For the same molecule, the “Hemolytic assay IC50 (nM), 10% serum” value was determined as 9.71 nM in experiment [3] and 14.7 nM in experiment [4]. In addition, the “MAC Deposition, 20% Serum EC50” value in experiment [3] came out at 15.4 nM; in experiment [4], 9.39 nM. Besides, the “Zymosan-C3b IC50 (nM), 10% serum” value in experiment [3] was determined as 1.64 nM; in experiment [4], 3.3 nM. For the same molecule, the koff was determined as 0.000366 s⁻¹ in experiment [5] and 0.000594 s⁻¹ in experiment [6]. The results for the on-rate (kon) in experiment [5] and in experiment [6] were 2.65e+06 M⁻¹ s⁻¹ and 2.77e+06 M⁻¹ s⁻¹, respectively.

B5: NVS964 (Fab, V domains shown)
VH: EVQLVQSGAEVKKPGASVKVSCKASGYTFTSHYMHWVRQAPGQGLEWMGKINADLGDTNYAQKFQGRVTMTRDTSISTAYMELSSLRSEDTAVYYCARDGIEHGGHYYWGYLFDIWGQGTLVTVSS
VL: SYELTQPPSVSVAPGQTARISCSGDSIREYYVHWYQQKPGQAPVLVIGDDTNRPSGIPERFSGSNSGNTATLTISGTQAEDEADYYCAAWDFSPAIVFGGGTKLTVLG
notes: Disulfide-bridged Fab; also called Fab NVS964
B5: the Kd in experiment [1] was 0.02 nM. For the same molecule, in experiment [2], the Kd turned out to be 0.19 nM. In experiment [3], the “Hemolytic assay IC50 (nM), 10% serum” value was determined as 9.26 nM; the “Inhibition … 20% human serum” value came to 42.2 nM; the “Zymosan-C3b IC50 (nM), 10% serum” value came out at 1.54 nM. Also, in experiment [4], the “Hemolytic assay IC50 (nM), 10% serum” value stood at 13.4 nM and the “Zymosan-C3b IC50 (nM), 10% serum” value was 6.59 nM. For the same molecule, in experiment [5], the Kd amounted to 0.035 nM, the koff stood at 4e-05 s⁻¹ and the kon was determined as 1e+06 M⁻¹ s⁻¹. In experiment [6], binding was characterised by a dissociation constant (Kd) of 0.16 nM, the koff came out at 0.0002 s⁻¹ and the kon stood at 1e+06 M⁻¹ s⁻¹.

B6: NVS967 (Fab, V domains shown)
VH: B5 VH with K50N, A53P, D54V, L55D, D57G, N59E
VL: B5 VL with E3V, Q16K, G76R, T77A, E80G
notes: Disulfide-bridged Fab; also called Fab NVS967
As to B6, the Kd in experiment [1] worked out at 0.04 nM; in experiment [2], 0.28 nM; in experiment [5], 0.06 nM; in experiment [6], 0.315 nM. In addition, the “Hemolytic assay IC50 (nM), 10% serum” value in experiment [3] was found to be 9.61 nM; in experiment [4] it was 14 nM. For the same molecule, the “Inhibition … 20% human serum” value in experiment [3] was 43.5 nM. In addition, the “Zymosan-C3b IC50 (nM), 10% serum” value in experiment [3] amounted to 2.53 nM; in experiment [4], 5.92 nM. The koff came to 9e-05 s⁻¹ in experiment [5] and 0.0006 s⁻¹ in experiment [6]. In addition, the kon in experiment [5] and in experiment [6] was 1e+06 M⁻¹ s⁻¹ in each case.

B7: NVS963 (Fab, V domains shown)
VH: EVQLVQSGAEVKKPGSSVKVSCKASGGTFSSYAISWVRQAPGQGLEWMGPINPYYGDAIYAQKFQGRVTITADESTSTAYMELSSLRSEDTAVYYCARYYSDYMDYWGQGTLVTVSS
VL: QSVLTQPPSVSGAPGQRVTISCTGSSSNIGAGYDVHWYQQLPGTAPKLLIHDNSHRPSGVPDRFSGSKSGTSASLAITGLQSEDEADYYCASYDESAHSVFGGGTKLTVLG
notes: Disulfide-bridged Fab; also called Fab NVS963
Take B7: in experiment [1], the Kd was 0.055 nM. Besides, the Kd in experiment [2] was determined as 0.115 nM. Moreover, in experiment [3], the “Hemolytic assay IC50 (nM), 10% serum” value worked out at 10.1 nM; the “Inhibition … 20% human serum” value is 65.1 nM; the “Zymosan-C3b IC50 (nM), 10% serum” value worked out at 2.34 nM. Moreover, in experiment [4], the “Hemolytic assay IC50 (nM), 10% serum” value came to 14.5 nM and the “Zymosan-C3b IC50 (nM), 10% serum” value was 9.75 nM. For the same molecule, in experiment [5], the Kd came to 0.09 nM, the koff was 0.0001 s⁻¹ and the kon stood at 1e+06 M⁻¹ s⁻¹. For the same molecule, in experiment [6], the Kd stood at 0.17 nM, the koff turned out to be 0.0002 s⁻¹ and the kon was 1e+06 M⁻¹ s⁻¹.

B8: NVS966 (Fab, V domains shown)
VH: EVQLVQSGAEVKKPGESLKISCKGSGYSFTNYWIGWVRQMPGKGLEWMGRIDPGESLTNYAPSFQGQVTISADKSISTAYLQWSSLKASDTAMYYCARTGVADVDMPFAHWGQGTLVTVSS
VL: SYVLTQPPSVSVAPGKTARISCSGDNLGSYYVNWYQQKPGQAPVLVIYGDSERPSGIPERFSGSNSGNTATLTISRAQAGDEADYYCGSWDITSFVFGGGTKLTVLG
notes: Disulfide-bridged Fab; also called Fab NVS966
With B8, the Kd in experiment [1] turned out to be 0.07 nM. The Kd in experiment [2] is 0.04 nM. In experiment [3], the “Hemolytic assay IC50 (nM), 10% serum” value came out at 7.15 nM; the “Inhibition … 20% human serum” value stood at 41.1 nM; the “Zymosan-C3b IC50 (nM), 10% serum” value was 1.66 nM. Further, in experiment [4], the “Hemolytic assay IC50 (nM), 10% serum” value came out at 13 nM and the “Zymosan-C3b IC50 (nM), 10% serum” value is 6.62 nM. For the same molecule, in experiment [5], the dissociation constant (Kd) is 0.16 nM, the koff worked out at 0.0003 s⁻¹ and the kon was 2e+06 M⁻¹ s⁻¹. In experiment [6], the Kd is 0.21 nM, the dissociation rate constant (koff) was 0.0002 s⁻¹ and the association rate constant (kon) is 1e+06 M⁻¹ s⁻¹.

As usually defined, the Kd is a measure of binding affinity in units of concentration. The koff is the first-order rate constant of dissociation. A low value points to a long-lived complex. By kon is commonly meant the second-order rate constant of association. Low readings indicate slower complex formation, high ones faster complex formation.
